# Measurements taken from patent US7959916B2, “Negative immunomodulation of immune responses by ERp5” (Fred Hutchinson Cancer Research Center, priority 2007, dated 2011).
# Numbering of substitutions follows the chain as printed. Numbers in names are those of the source.
# B1: dRNase: Denatured and reduced RNase A, excess substrate shifting ERp5 equilibrium towards the reduced state (protein, UniProt P61823 27-150, looked up)
# Ribonuclease pancreatic: KETAAAKFERQHMDSSTSAASSSNYCNQMMKSRNLTKDRCKPVNTFVHESLADVQAVCSQKNVACKNGQTNCYQSYSTMSITDCRETGSSKYPNCAYKTTQANKHIIVACEGNPYVPVHFDASV
# modifications: denatured and reduced
# notes: Denatured and reduced RNase A, excess substrate shifting ERp5 equilibrium towards the reduced state
# B2: native RNase: native RNase A used as control for dRNase (protein, UniProt P61823 27-150, looked up)
# Ribonuclease pancreatic: B1 Ribonuclease pancreatic
# B3: C36S: C36S mutant of ERp5 fragment 1-118 (protein)
# chain: LYSSSDDVIELTPSNFNREVIQSDSLWLVEFYAPWSGHCQRLTPEWKKAATALKDVVKVGAVDADKHHSLGGQYGVQGFPTIKIFGSNKNRPEDYQGGRTGEAIVDAALSALRQLVKD
# modifications: left off: small tags and cut ends
# B4: C39S: C39S mutant of ERp5 fragment 1-118 (protein)
# chain: B3 chain with S36C, C39S
# modifications: left off: small tags and cut ends
# B5: soluble MICA: soluble form of MHC class I-related chain A, NKG2D ligand binding ERp5 (protein)
# chain: EPHSLRYNLTVLSWDGSVQSGFLTEVHLDGQPFLRCDRQKCRAKPQGQWAEDVLGNKTWDRETRDLTGNGKDLRMTLAHIKDQKEGLHSLQEIRVCEIHEDNSTRSSQHFYYDGELFLSQNLETKEWTMPQSSRAQTLAMNVRNFLKEDAMKTKTHYHAMHADCLQELRRYLKSGVVLRRTVPPMVNVTRSEASEGNITVTCRASGFYPWNITLSWRQDGVSLSHDTQQWGDVLPDGNGTYQTWVATRICQGEEQRFTCYMEHSGNHSTHPVPSGK
# B6: rMICA: Non-glycosylated recombinant MICA expressed in bacteria (protein)
# chain: B5 chain
# B7: ERp51-118: recombinant N-terminal thioredoxin-like domain fragment of ERp5, residues 1-118 (protein)
# chain: B3 chain with S36C
# modifications: left off: small tags and cut ends
# Columns and labels:
# [1] = tested on: sMICA shedding by Hela and A375 cells; experiment: sMICA shedding by tumor cell lines (ELISA for sMICA)
# [2] = tested on: surface expression of MICA; experiment: MICA surface expression on tumor cell lines (flow cytometry); conditions: tumor lines exposed to DTNB or PAO at titered non-toxic concentrations
# [3] = target: T1, MICA (Homo sapiens, UniProt Q29983); experiment: ERp5 activity assay on MICA substrates (non-reducing SDS-PAGE); format: biochemical; conditions: ectodomain MICA, RT, no reducing agents
# T1 sequence (Q29983 24-299): B5 chain
# [4] = target: T2, MICA (Homo sapiens, UniProt Q29983); experiment: as above; format: biochemical; conditions: isolated α1α2 platform (residues 1-180)
# T2 sequence (Q29983 24-203): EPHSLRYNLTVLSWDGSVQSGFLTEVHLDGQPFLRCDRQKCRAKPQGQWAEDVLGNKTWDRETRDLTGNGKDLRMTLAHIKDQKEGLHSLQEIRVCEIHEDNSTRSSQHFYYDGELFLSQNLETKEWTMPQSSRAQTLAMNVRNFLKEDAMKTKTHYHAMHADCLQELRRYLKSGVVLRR
# [5] = tested on: Siderocalin and CD94-NKG2A; experiment: ERp5 activity assay on control proteins; format: biochemical; conditions: Siderocalin (intrachain) and CD94-NKG2A (intrachain and interchain) disulfide bonds
# [6] = tested on: ERp5-MICA complexes; experiment: Capturing of ERp5-MICA complexes by co-immunoprecipitation from TCA-treated Hela cells; format: cell-based; conditions: Hela cells grown 16 h with increasing concentrations
# Description: Immunoprecipitations and sMICA cleavage.
# [7] = target: T3, MICA (Homo sapiens, UniProt Q29983); experiment: ERp5 activity assay on MICA substrates (non-reducing SDS-PAGE); format: biochemical; conditions: isolated α3 domain (residues 187-274)
# T3 sequence (Q29983 210-297): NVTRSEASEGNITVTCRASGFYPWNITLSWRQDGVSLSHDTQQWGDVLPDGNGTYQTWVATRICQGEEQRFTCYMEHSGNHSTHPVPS
# [8] = tested on: PHA (or anti-CD3)-activated CD4 T cells; experiment: Cytokine production by activated CD4 T cells (17 multiplex cytokine analysis); format: cell-based; conditions: soluble MICA 10 ng/ml, 24 hour supernatants
# Experimental: Total PBMC from healthy donors were cultured for 48 hours with PHA (1 μg/ml) or on solid-phase anti-CD3 (25 ng/ml) and stained for standard three-color flow cytometry using combinations of directly conjugated anti-CD3, -CD4 and -CD8 mAbs followed by anti-ERp5 and PE-goat anti-rabbit Ig. For cytokine analyses, bulk NKG2D^+ and NKG2D^− T cell populations purified by magnetic sorting were plated on solid-phase monoclonal antibodies with or without soluble MICA (10 ng/ml). 24 hour culture supernatants were screened by 17 multiplex cytokine analysis.
# [9] = tested on: mDC and allogeneic T cells; experiment: Mixed-lymphocyte reaction, alloantigen presentation by mDC ([3H]thymidine incorporation); format: cell-based; conditions: MLR, soluble MICA 10 ng/ml, 72 h
# Experimental: mDC were matured using standard cytokine cocktail (Il-1β, IL-6, TNFα, and PGE2) in the additional presence or absence of soluble MICA (10 ng/ml). Mature mDC were harvested after 24 to 48 hours and processed for standard flow cytometry of CD80 and CD83 expression. For IL-6 secretion assays, 24 hour cytokine-matured mDC were washed, mixed with irradiated C1R-Neo (control), C1R-MICA or C1R-ULBP1 cells at a ratio of 2:1 and plated at 50,000 (experiment 1 and 2) or 200,000 mDC (experiment 3 and 4) per round-bottom 96-well in 200 μl AIM-V media with LPS (10 μg/ml). IL-6 contents in culture supernatants were measured by standard ELISA. The ability of mature mDC to present alloantigen in the presence or absence of soluble MICA was studied using standard mixed-lymphocyte reaction (MLR). Irradiated (3000 Rad) cytokine-matured mDC and allogeneic T cells were plated at various ratios (X-axis of bottom bar graph) with or without soluble MICA (10 ng/ml AIM-V) in round-bottom 96-well plates. After 72 hours, cells in wells were labeled with [^3H]thymidine for 24 hours and harvested for counting of incorporated radioactivity.
# [10] = tested on: monocyte derived dendritic cells (mDC); experiment: Maturation marker expression on monocyte-derived dendritic cells (flow cytometry); format: cell-based; conditions: mDC matured with cytokine cocktail, soluble MICA 10 ng/ml
# Experimental: Monocytes were enriched from normal peripheral blood mononuclear cells (PBMC) by plastic adherence and cultured under standard conditions in the presence of IL-4 and GM-CSF. Cells were harvested at 6 hour-intervals and stained with fluorescein isothiocyanate (FITC)-anti-CD83 or FITC-HLA-DR followed by saturating phycoerythrin (PE)-MICA tetramer concentrations or polyclonal rabbit anti-ERp5 and PE-goat anti-rabbit Ig. On day 6 of culture with IL-4/GM-CSF, mDC were matured (IL-1β, IL-6, TNFα, and PGE2) and MICA tetramer staining and Erp5 expression monitored for an additional 3 days. MICA tetramer was produced by ectodomain MICA protein expression in transfected 293T cells, protein purification from culture supernatant using Invitrogen technology, and BirA enzymatic biotinylation and conjugation with PE-streptavidin.
# mDC were matured using standard cytokine cocktail (Il-1β, IL-6, TNFα, and PGE2) in the additional presence or absence of soluble MICA (10 ng/ml). Mature mDC were harvested after 24 to 48 hours and processed for standard flow cytometry of CD80 and CD83 expression. […] IL-6 contents in culture supernatants were measured by standard ELISA. […] After 72 hours, cells in wells were labeled with [^3H]thymidine for 24 hours and harvested for counting of incorporated radioactivity.
# [11] = target: T4, ERp5 (Homo sapiens, UniProt Q15084); experiment: MICA tetramer binding to NKG2D-negative tumor cells (flow cytometry); conditions: U266, Hela, HCT116, Lovo and A375 cells, competition with unglycosylated protein
# T4 sequence (Q15084 20-440): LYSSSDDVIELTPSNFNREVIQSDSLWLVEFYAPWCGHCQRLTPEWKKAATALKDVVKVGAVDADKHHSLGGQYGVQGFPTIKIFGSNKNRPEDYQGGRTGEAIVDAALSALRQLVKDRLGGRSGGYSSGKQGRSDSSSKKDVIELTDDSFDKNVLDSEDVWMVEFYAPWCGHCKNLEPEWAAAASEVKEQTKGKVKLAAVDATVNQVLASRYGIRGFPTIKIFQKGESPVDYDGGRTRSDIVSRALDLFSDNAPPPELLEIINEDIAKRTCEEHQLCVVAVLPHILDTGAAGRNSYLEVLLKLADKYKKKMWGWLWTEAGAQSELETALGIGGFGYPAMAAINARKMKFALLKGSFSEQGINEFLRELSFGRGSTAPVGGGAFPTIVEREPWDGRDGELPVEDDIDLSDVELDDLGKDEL
molecule,measurement,setting,value
"O=C(O)c1cc(SSc2ccc([N+](=O)[O-])c(C(=O)O)c2)ccc1[N+](=O)[O-] [DTNB, 5,5-dithiobis-(2-nitrobenzoic acid), reference compound]",shedding of sMICA,"[1]; Hela and A375 cells, 24 h exposure, ELISA, dose-dependent",reduce shedding of sMICA
same,surface expression of MICA,[2],without affecting surface expression of MICA
ERp5: recombinant ERp5 (residues 1-421 of the mature protein) produced in bacteria,reduction of MICA disulfide bond,[3],gradual reduction of MICA
same,activity on MICA α1α2 domain,[4],no activity
same,reduction of unrelated proteins,[5],did not affect
B1,sMICA shedding,"[1]; Hela and A375 cell cultures treated with dRNase, 16 h",promotes sMICA shedding
same,"ERp5 co-immunoprecipitating with MICA, emergence of sMICA",[6],larger amounts of ERp5 co-immunoprecipitating with MICA
B2,"ERp5 co-immunoprecipitating with MICA, emergence of sMICA",[6],None of those biochemical changes were observed
B3,reduction of MICA disulfide bond,[3],no activity
B4,activity on MICA α3 domain,[7],reduces the MICA α3 disulfide bond
same,reduction of MICA disulfide bond,[3],formed a trapped disulfide-linked intermediate
B5,"amounts of IL-1β, IL-17, G-CSF and MCP1",[8]; NKG2D-CD4+ T cells,increased amounts
same,"amounts of IL-1β, IL-17, G-CSF and MCP1",[8]; activated NKG2D+CD4+ T cells,vastly increased
same,ability of mDC to present alloantigen and stimulate T cells,[9],reduced ability to present alloantigen and stimulate T cells
same,expression of DC maturation markers (CD83; CD80),[10],diminished
B6,MICA tetramer binding to NKG2D- tumor cells,[11],inhibited
B7,reduction of MICA disulfide bond,[3],partially reduced
